{"source": "paper PMC6908968", "about": "(Cell, 2019)", "binders": {"B1": {"name": "5.6.c4172 (antibody, V domains shown)", "VH": "QVQLQESGPGLVKPSGTLSLTCAVSGGSISSHYWWSWVRQSPGKGLEWLGEIYQIGSTNYNPSLKSRVSMSVDESKNQFSLSLTSVTAADTAVYYCARDQGHWNPGKGAFDIWGQGALVTVSS", "VL": "QSVLTQPPSVSAAPGQRVTISCSGSNSNIGKNFVSWYQQFPGTAPKLLIYDNDKRPSGIPDRFSGSKSGTSATLGITGLQTGDEADYFCATWDTTLSAWVFGGGTKVTVL"}, "B2": {"name": "5.6.c3010 (antibody, V domains shown)", "VH": "EVQLVESGGGLVQPGGSLRLSCAASGLTVSSNYMNWVRQAPGKGLEWVSVIYSGGRTYYADSVKGRFTISRDISKNTVYLEMNSLRADDTAVYYCARIYFFYNGMDVWGQGTTVTVSP", "VL": "EILLTQSPGTLSLSPGERATLSCRASQSVSSNYLAWFQQKPGQAPRLLIYGASSRATGIPDRFSGSGSGTDFTLTISRLEPEDFALYYCQQYGSSPPWTFGQGTKVEMK"}, "B3": {"name": "15.0.c800 (antibody, V domains shown)", "VH": "EDQLLESGGGLVQPGGSLRLSCAVSGFTFSGYDLSWVRQAPGKGLEWVSIFSGSGGRKYYADSVKGRFTLSIDNSKNTLYLQMNSLRAEDTAVYYCAGDSSGYNNERMYYTYYMDVWGKGTTVTVSS", "VL": "DIQMTQSPSSVSASVGDRVIITCRASQGISSWLAWYQQKPGKAPKLLIYAASSLQSGVPSRFSGSGSGTDFTLTISSLQPEDFATYYCQQANSFPLSFGGGTKVEIK"}, "B4": {"name": "15.0.c830 (antibody, V domains shown)", "VH": "EEQLLESGGGLVQPGGSLRLSCTVSGFTFSGYDMSWVRQAPGKGLEWVSLLSASGGGKYYADSVRGRFTISRDNSKNTMYLEMNSLRADDTAIYYCATDSSGYNYERLYYTYYMDVWGRGTTVSVSS", "VL": "B3 VL with I20T, S31V, Y49H, T72S, S97T"}, "B5": {"name": "15.0.c778 (antibody, V domains shown)", "VH": "QVQLHESGPGVVKVSETLSLTCTLSGGSINGNSWSWIRQTAGKGLEWIGRVYTSGSPNYNPSLKSRLTMSIVTSKNQFSLTLRSVTAADTAIYYCARDFVVIDPTRVVDDYDAFDVWGRGTVVTVSS", "VL": "DIQLTQSPSILSASVGDRVTITCRASQSVSRYLAWYQQKPGNAPKLLIYKVSTLQSGVPSRFSGSASGTEFTLTINSLQPDDFATYYCHQYNGYLYTFGQGTKVDVK"}, "B6": {"name": "15.0.c846 (antibody, V domains shown)", "VH": "EVQLVESGGGLVQPGGSLRLSCAASGFTFSSYWMSWVRQAPGKGLEWVANIKQDGSEKYYVDSVKGRFTISRDNAKNSLYLQMNSLRAEDTAVYYCARTRDSSSSFYYYYYMDVWGKGTTVTVSS", "VL": "not shown"}, "B7": {"name": "15.0.c942 (antibody, V domains shown)", "VH": "EVQLVESGGGVVRPGGSLRLTCAASGFIFENYGMSWVRQAPGKGLEWVSALNWNGVNTYYSDSVKGRFTISRDNAKNSLYLQMNSLSAEDTAFYYCAVHYYDSSGIYYLDDWGQGTLVTVSS", "VL": "QSVLTQPPSVSAAPGQKVSISCSGSSSNIGKNYVYWYQHVPGAAPKLLIYENDKRPSGIPDRFSGSKSGTSATLDITGLQTGDEAEYYCATWQSGLSAHVVFGGGTKLTVL"}, "B8": {"name": "15.0.c792 (antibody, V domains shown)", "VH": "EVQLVESGGGLVQPGGSLRLSCAASGFTFSSYSMNWVRQAPGKGLEWVSYISSSSSTIYYADSVKGRFTISRDNAKNSLYLQMNSLRAEDTAVYYCARESPTYYDFWSGYSDYWGQGTLVTVSS", "VL": "NFMLTQPHSVSESPGKTVTISCTRSSGSIASNYVQWYQQRPGSSPTTVIYEDNQRPSGVPDRFSGSIDSSSNSASLTISGLKTEDEADYYCQSYDSSNRVFGGGTKLTVL"}, "B9": {"name": "15.0.c865 (antibody, V domains shown)", "VH": "EVQLVESGGSVVRPGGSLRLSCAASVFTFENYGMSWVRQTPGKGLEWVSSINWNGANTGYADSVKGRFTVSRDNAKNSLYLQMNSLRAEDTALYYCARHRYDSSGQWYFDYWGQGTLVTVSS", "VL": "SYELTQPPSVSVSPGQTARITCSGDALPKKYAYWYQQKPGQAPVLVIYEDSKRPSGIPERFSGSRSGTMATLTISGAQVADEADYYCYSPDSSGNHRIFGTGTKVTVL"}, "B10": {"name": "15.0.c835 (antibody, V domains shown)", "VH": "not shown", "VL": "DIQLTQSPSFLSASVGDRVTITCRASQGISSYLAWYQQKPGKAPKLLIYAASTLQSGVPSRFSGSGSGTEFTLTISSLQPEDFATYYCQQLNSYGYTFGQGTKLEIK"}, "B11": {"name": "9.1.c1410 (antibody, V domains shown)", "VH": "EVQLVESGGGLVKPGGSLRLSCAASGFTFSSYSMNWVRQAPGKGLEWVSSISSSSSYIYYADSVKGRFTISRDNAKNSLYLQMNSLRAEDTAVYYCARDLSEYQLLLSYFDYWGQGTLVTVSS", "VL": "not shown"}, "B12": {"name": "15.0.c819 (antibody, V domains shown)", "VH": "QVQLVESGGGVVQPGRSLRLSCAASGFTFSSYAMHWVRQAPGKGLEWVAVISYDGSNKYYADSVKGRFTISRDNSKNTLYLQMNSLRAEDTAVYYCARDLLWFGELLFREYYMDVWGKGTTVTVSS", "VL": "not shown"}, "B13": {"name": "9.1.c1426 (antibody, V domains shown)", "VH": "QVQLQESGPGLVKPSQTLSLTCTVSGGSISSGDYYWSWIRQPPGKGLEWIGYIYYSGSTYYNPSLKSRVTISVDTSKNQFSLKLSSVTAADTAVYYCARGYSSGWYLAYFQHWGQGTLVTVSS", "VL": "not shown"}, "B14": {"name": "5.6.c3387 (antibody, V domains shown)", "VH": "QLQLQESGPRLVKPSETLSLTCTVSGGSINRNSYYWGWIRQPPGKGLEWIGTIYYSGSPYYNPSLKSRVTISVDTSKNQFSLKLDSVTAADTALYFCASLWGWNDVGWFDSWGQGTLVTVSS", "VL": "EIVLTQSPGTLSLSPGERATLSCRASQSVSSGYLAWYQQKPGQAPRLLIYGASIRAAGIPDRFSGSGSGTDFTLTISRLEPEDFAVYFCQQYGTSPLTFGPGTTVDIK"}, "B15": {"name": "5.6.c2647 (antibody, V domains shown)", "VH": "QDQLVQSGAEVKKPGASVKVSCKASGYSFTGHYIHWVRRAPGRGLEWMGWINPDSGGTNYAQKFQGWVSMTRDTSISTAYMELSSLKSDDTAVYYCARGITMICDLWGQGTQVTVSS", "VL": "not shown"}, "B16": {"name": "15.0.c912 (antibody, V domains shown)", "VH": "QVQLQESGPGLVKPSQTLSLTCTVSGGSISSGGYYWNWVRQHPGKGLEWIGYISYSGSTFYSGSTYYNPSLKSRITISLDTSKNQFSLNLSSVTAADTAVYYCARDRGDPGGYYNYGMDVWGQGTTVTVSS", "VL": "QSVLTQPPSASGTPGQRVTISCSGSSSNIGSHYVYWYQQLSGTAPKLLIYRNNERPSGVPDRFSGSKSGTSASLAISGLRSEDEADYYCATWDDSQRVFGGGTKLTVL"}, "B17": {"name": "15.0.c779 (antibody, V domains shown)", "VH": "EVQMVESGGGLVKPGGSLRLSCAASGFIFSNAWMSWVRQAPGKGLEWVGRIKGKTDGGTTDYAAPVKGRVTISRDDSKNTLFLQMNSLKTEDTAVYFCTADVLPAATRGVYYYYYYMDVWGKGTTVTVSS", "VL": "QSALTQPASVSGSPGQSITISCTGTSSDVGGYNYVSWYQQHPGKAPKLMIYDVSKRPSGVSNRFSGSKSGNTASLTISGLQAEDEADYYCCSYTGRSTVVFGGGTTLTVL"}, "B18": {"name": "15.0.c780 (antibody, V domains shown)", "VH": "EVQLVESGGGLVKPGGSLRLSCAASGFTFSNAWMSWVRQAPGKGLEWVGRIKGKTDGGTTDYAAPVRGRFTISRDDSKNMLYLQMNSLKTEDTAIYYCTADVIPAATRGVYYYYYYMDVWGEGTTVAVSS", "VL": "B17 VL with V60L, T94A, G95R, R96S, T106K, L107V"}, "B19": {"name": "5.6.c2875 (antibody, V domains shown)", "VH": "EVQLVESGGGVVQPGGSLRLSCAASGFTLRNFDMHWVRQVTGKGLEWVSGIGTAGDTYYPDSVKGRFTISRENAKNSLYLQMNSLRAEDTAVYYCARARWLQFDNWGQGALVTVSS", "VL": "EIVLTQSPGTLSLSPGERATLSCKASQRVTSNFLAWYQQTPGQAPRLLIYSASSRATGIPDRFSGSGSGTDFTLTISRLEPEDFAVYYCQQYRSSRYTFGQGTKLEIK"}, "B20": {"name": "5.6.c2617 (antibody, V domains shown)", "VH": "EVQLVESGGGLVQPGGSLRLSCVASGFTFSSYEMDWVRQAPGKGLEWVSYIGSSGSTIYYADSVKGRFTISRDNAKNSLYLQMNSLRAEDTAVYYCARDTETTGLYYYGMDVWGQGTTVTVSA", "VL": "B3 VL with I20T, S31R, A50G, A51T, L96F, S97T, G100P, K103R, E105D"}, "B21": {"name": "5.6.c3242 (antibody, V domains shown)", "VH": "QVQLQESGPGLVKPSATLSLTCTVSGGSISSDHWSWIRQPPGKGLEWIGHVIYSGSTNYIPSLKSRVTISIDTSKNQFSLKLRSVTAADTAVYYCARGGGWYDNWFDPWGQGTLVTVSS", "VL": "QSALTQPASVSGSPGQSIIISCTGTSNDVGSYNLVSWYQQHPGKAPKLMIYEGNKRPSGVSNRFSGSKSGNAASLKISGLQSEDEAEYYCCSYAGSGTWVFGGGTKLTVL"}, "B22": {"name": "5.6.c3169 (antibody, V domains shown)", "VH": "QVQLVQSGTEVKKPGASVRVSCKSSGYTFTNYGINWVRQAPGQGLEWLGWISTYNDNINYAQKFQGRVTMTTDTSTSTAYMELRSLRSDDTAIYYCAKDSSAYWDLLFYGMDVWGQGTTVTVSS", "VL": "B10 VL with L11V, Y32S, K45N, T53A, E70D, Y87F, G95P"}, "B23": {"name": "5.6.c2902 (antibody, V domains shown)", "VH": "QVQLQESGPGLVKPSQTLSLTCTVSGASINSRDSYWSWIRQPPGKGLEWIGYIYYSGSTYSNPSLKSRVTMSVDTSKNQISLQLSSVTAADTAVYYCARVEGNEILFSLWYFDIWGRGTPVSVSS", "VL": "QSVLTQPPSVSAAPGQKVTISCSGSSSNIGNNYVSWYQQLPGTAPKLLIYDNNKRPSGIPDRFSGSKSGTSATLGITGLQTGDEADYYCGSWDSSLSAGHWVFGGGTKLTVL"}}, "note": "Residue numbers refer to the chain shown, from its start."}
{"molecular_target": "T1, thermolysin-cleaved EBOV GP on Jurkat-GP cells (cleaved GP) (Zaire ebolavirus, Makona (GP1 core …, strain))", "T1 chain 1": "not shown", "T1 chain 2": "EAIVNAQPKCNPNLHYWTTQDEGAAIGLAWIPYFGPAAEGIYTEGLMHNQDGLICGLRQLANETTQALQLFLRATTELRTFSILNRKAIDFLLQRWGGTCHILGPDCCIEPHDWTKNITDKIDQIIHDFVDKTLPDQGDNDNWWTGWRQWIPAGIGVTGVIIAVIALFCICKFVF"}
{"binder": "B1", "binding result": "binds"}
{"binder": "B2", "binding result": "binds"}
{"binder": "B3", "binding result": "binds"}
{"binder": "B4", "binding result": "binds"}
{"binder": "B5", "binding result": "binds"}
{"binder": "B6", "binding result": "binds"}
{"binder": "B7", "binding result": "binds"}
{"binder": "B8", "binding result": "binds"}
{"binder": "B9", "binding result": "binds"}
{"binder": "B10", "binding result": "binds"}
{"binder": "B11", "binding result": "binds"}
{"binder": "B12", "binding result": "binds"}
{"binder": "B13", "binding result": "binds"}
{"binder": "B14", "binding result": "binds"}
{"binder": "B15", "binding result": "binds"}
{"binder": "B16", "binding result": "binds"}
{"binder": "B17", "binding result": "binds"}
{"binder": "B18", "binding result": "binds"}
{"molecular_target": "EBOV GP ectodomain residues 1-636 (GPec) (Zaire ebolavirus, strain  …, UniProt Q05320)"}
{"binder": "B19", "binding result": "binds"}
{"binder": "B20", "binding result": "binds"}
{"binder": "B21", "binding result": "binds"}
{"binder": "B22", "binding result": "binds"}
{"binder": "B23", "binding result": "binds"}
